The results in this text go back to US20030157553A1 (published 2003).

For the experiment, the target named is T1, phosphorylated β2-adrenergic receptor (agonist-activated) (UniProt P07550 1-413, limits assumed, phosphorylated (sites and kinase not stated for the experiment)).
T1 construct: Phosphorylated form of the purified, reconstituted β2AR; also called P-β2AR
Briefly: agonist affinity shift assay, [125I]iodopindolol displacement by agonist with saturating (1 µM) purified arrestin, P-β2AR. On the procedure:
Agonist Affinity ShiftAssay—P-β₂AR or β₂AR (10-15 fmol/assay) was incubated in 0.25 ml of 10 mM Tris-HCl, pH 7.4, 100 mM NaCl (buffer A) containing 0.1 mg/ml bovine serum albumin in the presence of 65-75 fmol of [¹²⁵I] iodopindolol (NEN Life Science Products) and the indicated concentrations of arrestins and agonists for 60 min at 22° C. Samples were then cooled on ice and loaded at 4° C. onto 2 ml of Sephadex G-50 columns. Receptor-containing liposomes with bound radioligand were eluted with buffer A (between 0.6 and 1.5 ml), and radioactivity was quantitated in a liquid scintillation counter. Nonspecific binding was determined in the presence of 10 μM alprenolol. All experiments were repeated two to three times, and data are presented as means ±S.D.
It was recently reported that arrestin-receptor complex is similar to G protein-receptor complex in two respects: agonists have higher affinity for arrestin-receptor complex than for receptor alone, and only a fraction of the receptors forms such a high agonist affinity complex (HAC) even at saturating concentrations of arrestin (Gurevich et al. (1997) supra). The maximum percentage of the receptor in HAC gives a good estimate of the propensity of a given arrestin protein to bind tightly to the receptor (arrestin competency) Gurevich et al. (1997) supra)). […]

B1: wild type bovine β-arrestin (other)
chain: MGDKGTRVFKKASPNGKLTVYLGKRDFVDHIDLVEPVDGVVLVDPEYLKERRVYVTLTCAFRYGREDLDVLGLTFRKDLFVANVQSFPPAPEDKKPLTRLQERLIKKLGEHAYPFTFEIPPNLPCSVTLQPGPEDTGKACGVDYEVKAFCAENLEEKIHKRNSVRLVIRKVQYAPERPGPQPTAETTRQFLMSDKPLHLEASLDKEIYYHGEPISVNVHVTNNTNKTVKKIKISVRQYADICLFNTAQYKCPVAMEEADDTVAPSSTFCKVYTLTPFLANNREKRGLALDGKLKHEDTNLASSTLLREGANREILGIIVSYKVKVKLVVSRGGLLGDLASSDVAVELPFTLMHPKPKEEPPHREVPEHETPVDTNLIELDTNDDDIVFEDFARQRLKGMKDDKEEEEDGTGSPRLNDR
notes: Full-length wild type from construct pBARR; also called wild type β-arrestin; bovine β-arrestin 1A
Regarding B1, the “percentage of receptor in high agonist affinity complex (HAC)” value amounted to 31%.

B2: β-arrestin-(Arg169→Glu) (other)
chain: MGDKGTRVFKKASPNGKLTVYLGKRDFVDHIDLVEPVDGVVLVDPEYLKERRVYVTLTCAFRYGREDLDVLGLTFRKDLFVANVQSFPPAPEDKKPLTRLQERLIKKLGEHAYPFTFEIPPNLPCSVTLQPGPEDTGKACGVDYEVKAFCAENLEEKIHKRNSVRLVIEKVQYAPERPGPQPTAETTRQFLMSDKPLHLEASLDKEIYYHGEPISVNVHVTNNTNKTVKKIKISVRQYADICLFNTAQYKCPVAMEEADDTVAPSSTFCKVYTLTPFLANNREKRGLALDGKLKHEDTNLASSTLLREGANREILGIIVSYKVKVKLVVSRGGLLGDLASSDVAVELPFTLMHPKPKEEPPHREVPEHETPVDTNLIELDTNDDDIVFEDFARQRLKGMKDDKEEEEDGTGSPRLNDR
notes: Bovine β-arrestin point mutant made in pBARR
As to B2, the “percentage of receptor in high agonist affinity complex (HAC)” value came to 52%.
